Experimental data published in US20200317768A1 (published 2020).

T1: cynomolgus monkey FcγRIIa1 extracellular domain, C-terminal His-tag (cynomolgus monkey)
T1 construct: also called cyno FcγRIIa1; cynoFcgRIIa1; not shown: His-tag added to C-terminus
T1 chain: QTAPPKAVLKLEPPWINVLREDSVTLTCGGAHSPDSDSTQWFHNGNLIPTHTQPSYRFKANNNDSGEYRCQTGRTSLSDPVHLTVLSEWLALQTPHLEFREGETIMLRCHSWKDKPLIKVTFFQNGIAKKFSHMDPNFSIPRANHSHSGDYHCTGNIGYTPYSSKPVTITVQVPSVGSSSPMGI

T2: human FcγRIIaH extracellular domain, C-terminal His-tag (human, UniProt P12318 34-217)
T2 construct: also called human FcγRIIa (type H); FcgRIIaH; not shown: His-tag added to C-terminus
T2 sequence: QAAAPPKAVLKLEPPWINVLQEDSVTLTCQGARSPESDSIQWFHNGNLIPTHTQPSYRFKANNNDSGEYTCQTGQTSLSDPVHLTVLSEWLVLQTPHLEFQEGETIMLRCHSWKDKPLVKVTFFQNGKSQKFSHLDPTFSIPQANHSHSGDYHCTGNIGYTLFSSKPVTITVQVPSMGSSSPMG

T3: human FcγRIIb extracellular domain, C-terminal His-tag (human, UniProt P31994 43-217)
T3 construct: also called FcgRIIb (human); not shown: His-tag added to C-terminus
T3 sequence: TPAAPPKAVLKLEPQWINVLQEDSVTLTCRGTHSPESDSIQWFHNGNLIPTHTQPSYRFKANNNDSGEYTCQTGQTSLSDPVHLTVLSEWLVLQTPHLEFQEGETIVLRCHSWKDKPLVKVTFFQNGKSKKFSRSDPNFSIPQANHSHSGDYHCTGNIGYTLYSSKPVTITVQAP

T4: cynomolgus monkey FcγRIIa2 extracellular domain, C-terminal His-tag (cynomolgus monkey)
T4 construct: also called cyno FcγRIIa2; cynoFcgRIIa2; not shown: His-tag added to C-terminus
T4 chain: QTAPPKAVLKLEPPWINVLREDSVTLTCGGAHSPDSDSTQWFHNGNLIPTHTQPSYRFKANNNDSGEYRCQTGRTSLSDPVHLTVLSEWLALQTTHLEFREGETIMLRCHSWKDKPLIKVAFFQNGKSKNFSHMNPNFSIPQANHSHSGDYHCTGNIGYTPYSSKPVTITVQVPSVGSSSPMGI

T5: cynomolgus monkey FcγRIIa3 extracellular domain, C-terminal His-tag (cynomolgus monkey)
T5 construct: also called cyno FcγRIIa3; cynoFcgRIIa3; not shown: His-tag added to C-terminus
T5 chain: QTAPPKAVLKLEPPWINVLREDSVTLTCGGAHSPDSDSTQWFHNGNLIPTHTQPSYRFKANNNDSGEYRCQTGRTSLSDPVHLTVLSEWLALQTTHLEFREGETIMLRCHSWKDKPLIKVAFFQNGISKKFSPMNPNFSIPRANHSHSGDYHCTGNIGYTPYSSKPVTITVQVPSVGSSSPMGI

T6: human FcγRIIaR extracellular domain, C-terminal His-tag (human, UniProt P12318 34-217)
T6 construct: also called human FcγRIIa (type R); FcgRIIaR; not shown: His-tag added to C-terminus
T6 chain: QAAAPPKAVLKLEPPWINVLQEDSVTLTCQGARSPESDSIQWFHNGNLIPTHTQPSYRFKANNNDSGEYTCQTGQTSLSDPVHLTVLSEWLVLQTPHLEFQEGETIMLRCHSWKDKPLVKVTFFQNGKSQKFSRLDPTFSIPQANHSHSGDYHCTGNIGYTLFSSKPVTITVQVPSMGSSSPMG

T7: cynomolgus monkey FcγRIIb extracellular domain, C-terminal His-tag (cynomolgus monkey)
T7 construct: also called cyno FcγRIIb; cynoFcγRIIb; not shown: His-tag added to C-terminus
T7 chain: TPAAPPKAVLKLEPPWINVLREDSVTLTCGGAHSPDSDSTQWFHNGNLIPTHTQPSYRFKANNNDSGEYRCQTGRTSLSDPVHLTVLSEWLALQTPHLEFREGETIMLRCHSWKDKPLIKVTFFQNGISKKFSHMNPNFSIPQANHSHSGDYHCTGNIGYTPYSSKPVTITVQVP


What was measured:
Experiment in all cases: SPR (Biacore), antibody captured, FcgR analyte, 25 C
[1] = target: T1, cynomolgus monkey FcγRIIa1 …
Experimental: (§1) The kinetic analysis of interactions between these antibodies and FcγR was carried out using BIACORE® T200 or BIACORE® 4000 (GE Healthcare). HBS-EP+ (GE Healthcare) was used as the running buffer, and the measurement temperature was set to 25° C. A chip produced by immobilizing Protein A. Protein A/G or mouse anti-human IgG kappa light chain (BD Biosciences) onto a Series S Sensor Chip CM4 or CM5 (GE Healthcare) by the amine-coupling method was used. […] After the measurement, the antibody captured on the chip was washed off by allowing reaction with 10 mM glycine-HCl, pH1.5 and 25 mM NaOH so that the chip was regenerated and used repeatedly. The sensorgrams obtained as measurement results were analyzed by the 1:1 Langmuir binding model using the BIACORE® Evaluation Software to calculate the binding rate constant ka (L/mol/s) and dissociation rate constant kd (l/s), and the dissociation constant KD (mol/L) was calculated from these values. […] Regarding such interactions, KD values were calculated using the following 1:1 binding model described in BIACORE® T100 Software Handbook BR1006-48 Edition AE.
(§2) The behavior of interacting molecules according to the 1:1 binding model on BIACORE® can be described by Equation 1: Req=C·R max/(KD+C)+RI, wherein, Req is a plot of steady-state binding levels to analyte concentration. C is concentration, RI is bulk refractive index contribution in the sample, and Rmax is analyte binding capacity of the surface. When this equation is rearranged, KD can be expressed as Equation 2: KD=C·Rmax/(Req−RI)−C. KD can be calculated by substituting the values of Rmax, RI, and C into Equation 1 or Equation 2. From the current measurement conditions, RI=0, C=2 μmol/L can be used.

[2] = target: T2, human FcγRIIaH extracellular domain, …
Experimental: as §1, §2

[3] = target: T8, cynomolgus monkey FcγRIIIaS extracellular domain, C-terminal His-tag (cynomolgus monkey, UniProt A3RFZ7 21-206 (rhesus entry))
T8 construct: also called cyno FcγRIIIaS; cynoFcγRIIIaS; not shown: His-tag added to C-terminus
Experimental: as §1, §2

[4] = target: T3, human FcγRIIb extracellular domain, …
Experimental: as §1, §2

[5] = target: T4, cynomolgus monkey FcγRIIa2 …
Experimental: as §1, §2

[6] = target: T5, cynomolgus monkey FcγRIIa3 …
Experimental: as §1, §2

[7] = target: T9, human FcγRIIIaV extracellular domain, C-terminal His-tag (human, UniProt P08637 17-208)
T9 construct: also called FcgRIIIaV; not shown: His-tag added to C-terminus
Experimental: as §1, §2

[8] = target: T6, human FcγRIIaR extracellular domain, …
Experimental: as §1, §2

[9] = target: T7, cynomolgus monkey FcγRIIb extracellular …
Experimental: as §1, §2

T8 sequence (A3RFZ7 21-206): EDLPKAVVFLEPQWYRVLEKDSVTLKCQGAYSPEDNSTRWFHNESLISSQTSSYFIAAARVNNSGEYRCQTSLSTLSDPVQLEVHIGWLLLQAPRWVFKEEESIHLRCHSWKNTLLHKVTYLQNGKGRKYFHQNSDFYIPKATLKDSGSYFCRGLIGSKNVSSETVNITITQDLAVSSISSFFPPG
T9 sequence (P08637 17-208 F176V): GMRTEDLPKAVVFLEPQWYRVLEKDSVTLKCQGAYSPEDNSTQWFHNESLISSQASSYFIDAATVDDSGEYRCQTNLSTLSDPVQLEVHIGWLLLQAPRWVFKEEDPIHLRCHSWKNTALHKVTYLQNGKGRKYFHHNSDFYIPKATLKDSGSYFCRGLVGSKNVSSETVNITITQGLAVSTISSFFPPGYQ

Row | Kd [1] [nM] | Kd [2] [nM] | Kd [3] [nM] | Kd [4] [nM] | Kd [5] [nM] | Kd [6] [nM] | Kd [7] [nM] | Kd [8] [nM] | Kd [9] [nM] | Binder
1 | 1900 | 270 | 2300 | 160 | 3200 | 3700 | 6400 | 210 | 590 | M103205H795-MY329/M103202L889-SK1 (antibody, human IgG1, kappa) heavy: QVTLKESGPVLVKPTETLTLTCTVSGIDLSHDDISWVRQAPGKGLEWVGIISYAGSTYYASWAKGRLTISKDTSKNQVVLTMTNMDPVDTATYYCARGVPAYSHGGDLWGQGTLVTVSSASTKGPSVFPLAPSSKSTSGGTAALGCLVKDYFPEPVTVSWNSGALTSGVHTFPAVLQSSGLYSLSSVVTVPSSSLGTQTYICNVNHKPSNTKVDKKVEPKSCDKTHTCPPCPAPELLDGPSVFLFPPKPKDTLMISRTPEVTCVVVDVSDEDPEVKFNWYVDGVEVHNAKTKPREELYNSTYRVVSVLTVLHQDWLNGKEYKCKVSNKALPKPIEKTISKAKGQPREPQVYTLPPSREEMTKNQVSLTCLVKGFYPSDIAVEWESNGQPENNYKTTPPVLDSDGSFFLYSKLTVDKSRWQQGNVFSCSVMHEALHNHYTQKSLSLSP light: DIVMTQSPATLSLSPGERATLSCTSSQSVYHANWLSWFQQKPGQPPKLLIYWASTLAYGVPSRFSGSGSGTDFTLTISSLQPEDAATYYCAGGYGGGRYAFGQGTKVEIKRTVAAPSVFIFPPSDEQLKSGTASVVCLLNNFYPREAKVQWKVDNALQSGNSQESVTEQDSKDSTYSLSSTLTLSKADYEKHKVYACEVTHQGLSSPVTKSFNRGEC
2 | 3400 | 350 | 4300 | 170 | 4800 | 5300 | 9900 | 200 | 1000 | M103205H795-MY327/M103202L889-SK1 (antibody, human IgG1, kappa) heavy: QVTLKESGPVLVKPTETLTLTCTVSGIDLSHDDISWVRQAPGKGLEWVGIISYAGSTYYASWAKGRLTISKDTSKNQVVLTMTNMDPVDTATYYCARGVPAYSHGGDLWGQGTLVTVSSASTKGPSVFPLAPSSKSTSGGTAALGCLVKDYFPEPVTVSWNSGALTSGVHTFPAVLQSSGLYSLSSVVTVPSSSLGTQTYICNVNHKPSNTKVDKKVEPKSCDKTHTCPPCPAPELLDGPSVFLFPPKPKDTLMISRTPEVTCVVVDVSEEDPEVKFNWYVDGVEVHNAKTKPREELYNSTYRVVSVLTVLHQDWLNGKEYKCKVSNKALPKPIEKTISKAKGQPREPQVYTLPPSREEMTKNQVSLTCLVKGFYPSDIAVEWESNGQPENNYKTTPPVLDSDGSFFLYSKLTVDKSRWQQGNVFSCSVMHEALHNHYTQKSLSLSP light: DIVMTQSPATLSLSPGERATLSCTSSQSVYHANWLSWFQQKPGQPPKLLIYWASTLAYGVPSRFSGSGSGTDFTLTISSLQPEDAATYYCAGGYGGGRYAFGQGTKVEIKRTVAAPSVFIFPPSDEQLKSGTASVVCLLNNFYPREAKVQWKVDNALQSGNSQESVTEQDSKDSTYSLSSTLTLSKADYEKHKVYACEVTHQGLSSPVTKSFNRGEC
